No end group written: not given here.
Assays:
[1] = molecular target: T1, rat lung ACE (angiotensin I converting enzyme in ground rat lung material) (rat, UniProt P47820 36-1313, limits assumed); test: cell-based or functional assay
T1 sequence (looked up): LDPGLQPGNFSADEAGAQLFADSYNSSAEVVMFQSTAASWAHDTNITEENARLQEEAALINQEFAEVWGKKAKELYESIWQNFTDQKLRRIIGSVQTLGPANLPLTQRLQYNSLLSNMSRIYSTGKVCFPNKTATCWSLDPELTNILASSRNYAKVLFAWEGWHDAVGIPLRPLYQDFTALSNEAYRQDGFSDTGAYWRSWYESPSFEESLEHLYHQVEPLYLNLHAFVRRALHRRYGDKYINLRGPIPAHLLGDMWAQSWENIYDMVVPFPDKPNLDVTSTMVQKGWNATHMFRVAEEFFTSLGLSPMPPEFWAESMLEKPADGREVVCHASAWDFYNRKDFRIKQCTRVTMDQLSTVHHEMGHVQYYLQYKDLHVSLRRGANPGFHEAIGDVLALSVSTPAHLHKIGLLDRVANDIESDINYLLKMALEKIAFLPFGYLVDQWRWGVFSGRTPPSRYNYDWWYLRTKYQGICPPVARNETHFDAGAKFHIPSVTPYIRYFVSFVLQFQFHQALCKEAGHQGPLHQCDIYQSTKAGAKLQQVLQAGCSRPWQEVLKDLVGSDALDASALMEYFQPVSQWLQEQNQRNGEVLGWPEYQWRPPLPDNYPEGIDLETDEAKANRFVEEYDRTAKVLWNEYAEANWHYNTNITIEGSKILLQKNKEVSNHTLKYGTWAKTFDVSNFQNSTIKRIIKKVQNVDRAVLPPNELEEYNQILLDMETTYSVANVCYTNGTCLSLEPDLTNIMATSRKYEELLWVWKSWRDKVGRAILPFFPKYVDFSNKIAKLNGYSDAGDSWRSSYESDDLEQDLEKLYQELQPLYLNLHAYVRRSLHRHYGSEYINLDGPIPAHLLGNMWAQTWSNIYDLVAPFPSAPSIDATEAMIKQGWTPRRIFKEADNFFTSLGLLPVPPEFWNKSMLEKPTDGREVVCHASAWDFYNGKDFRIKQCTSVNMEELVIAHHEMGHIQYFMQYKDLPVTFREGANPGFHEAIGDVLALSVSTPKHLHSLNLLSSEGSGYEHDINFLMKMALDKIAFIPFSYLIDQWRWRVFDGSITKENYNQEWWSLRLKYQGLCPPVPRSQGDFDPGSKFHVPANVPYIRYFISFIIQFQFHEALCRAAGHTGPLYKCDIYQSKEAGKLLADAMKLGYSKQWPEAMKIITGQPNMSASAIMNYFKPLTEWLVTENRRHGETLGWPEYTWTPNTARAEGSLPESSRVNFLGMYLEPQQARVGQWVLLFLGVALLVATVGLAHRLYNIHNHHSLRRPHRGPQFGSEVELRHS

[2] = molecular target: human converting enzyme (human ACE) (human, UniProt P12821 30-1306, limits assumed); test: cell-based or functional assay

| Binder | in vitro degradation: % of peptide assayed relative to the control (enzyme immunoassay), T30 min, no captopril [1] | in vitro degradation: % of peptide assayed relative to the control (enzyme immunoassay), T30 min, with captopril 10 uM [1] | in vitro degradation: % of peptide assayed relative to the control (enzyme immunoassay), T60 min, no captopril [1] | in vitro degradation: % of peptide assayed relative to the control (enzyme immunoassay), T60 min, with captopril 10 uM [1] | in vitro degradation: % of peptide assayed relative to the control (enzyme immunoassay), T120 min, no captopril [1] | in vitro degradation: % of peptide assayed relative to the control (enzyme immunoassay), T120 min, with captopril 10 uM [1] | in vitro degradation: % of peptide assayed relative to the control (enzyme immunoassay), T240 min, no captopril [1] | in vitro degradation: % of peptide assayed relative to the control (enzyme immunoassay), T240 min, with captopril 10 uM [1] | in vitro degradation: % of peptide assayed relative to the control (enzyme immunoassay), T10 min, no captopril [2] | in vitro degradation: % of peptide assayed relative to the control (enzyme immunoassay), T10 min, with captopril 10 uM [2] | in vitro degradation: % of peptide assayed relative to the control (enzyme immunoassay), T30 min, no captopril [2] | in vitro degradation: % of peptide assayed relative to the control (enzyme immunoassay), T30 min, with captopril 10 uM [2] | in vitro degradation: % of peptide assayed relative to the control (enzyme immunoassay), T60 min, no captopril [2] | in vitro degradation: % of peptide assayed relative to the control (enzyme immunoassay), T60 min, with captopril 10 uM [2] | in vitro degradation: % of peptide assayed relative to the control (enzyme immunoassay), T120 min, no captopril [2] | in vitro degradation: % of peptide assayed relative to the control (enzyme immunoassay), T120 min, with captopril 10 uM [2] | in vitro degradation: % of peptide assayed relative to the control (enzyme immunoassay), T240 min, no captopril [2] | in vitro degradation: % of peptide assayed relative to the control (enzyme immunoassay), T240 min, with captopril 10 uM [2] | in vitro degradation: % of peptide assayed relative to the control (enzyme immunoassay), T1440 min, no captopril [2] | in vitro degradation: % of peptide assayed relative to the control (enzyme immunoassay), T1440 min, with captopril 10 uM [2] |
| --- | --- | --- | --- | --- | --- | --- | --- | --- | --- | --- | --- | --- | --- | --- | --- | --- | --- | --- | --- | --- |
| Ac-SDKP-NH2 [N-acetyl-Ser-Asp-Lys-Pro-NH2 (AcSDKP-NH2)] | 100% | 125% | 65% | 65% | 95% | 109% | 126% | 136% | 79% | 90% | 100% | 162% | 116% | 78% | 116% | 95% | 107% | 104% | 86% | 117% |
| Ac-SDKP [N-acetyl-Ser-Asp-Lys-Pro (AcSDKP)] | 28% | 129% | 9% | 111% | 5% | 75% | 5% | 89% | 82% | 90% | 75% | 100% | 50% | 85% | 25% | 85% | 7% | 100% | – | – |

— patent US7601333B2, “Use of a tetrapeptide AcSDKP (SEQ ID No. 1) analog resistant to the angiotensin I converting enzyme for measuring glomerular filtration rate in a human or an animal and kit containing same” (Assistance Publique-Hopitaux de Paris, priority 2003, dated 2009)
